Measurements published in patent publication US20220380444A1.

Biological target: mouse complement protein C5 (mouse) (UniProt P06684)
Experiment: cell-based or functional assay

monoclonal anti-C5 antibody BB5.1, sequence (VH): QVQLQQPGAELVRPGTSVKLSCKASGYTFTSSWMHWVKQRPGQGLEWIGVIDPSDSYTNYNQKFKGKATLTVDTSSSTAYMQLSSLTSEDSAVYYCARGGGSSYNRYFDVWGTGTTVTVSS
monoclonal anti-C5 antibody BB5.1, sequence (VL): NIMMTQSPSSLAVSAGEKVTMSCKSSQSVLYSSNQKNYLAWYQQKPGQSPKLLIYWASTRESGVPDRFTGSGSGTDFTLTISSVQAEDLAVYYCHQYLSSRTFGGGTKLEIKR

Substance	50% Inhibitory Dose, classical pathway haemolysis assay [ng/mL]	Haemolytic Units (HU), classical pathway haemolysis assay [HU]
monoclonal anti-C5 antibody BB5.1	614	16.3
Crovalimab (original name SKY59) (antibody)	1860	1.4
